From patent publication US20090118184A1 (UNIVERSITY OF ROCHESTER, published 2009)
Substitutions are numbered along the chain they refer to.

Experiments:
Assay in all cases: cell-based or functional assay
[1] = biological target: T1, factor VIIIa A1/A3C1C2 dimer, Y1792F (human, UniProt P00451 20-391; P00451 1709-2351)
T1 sequence 1: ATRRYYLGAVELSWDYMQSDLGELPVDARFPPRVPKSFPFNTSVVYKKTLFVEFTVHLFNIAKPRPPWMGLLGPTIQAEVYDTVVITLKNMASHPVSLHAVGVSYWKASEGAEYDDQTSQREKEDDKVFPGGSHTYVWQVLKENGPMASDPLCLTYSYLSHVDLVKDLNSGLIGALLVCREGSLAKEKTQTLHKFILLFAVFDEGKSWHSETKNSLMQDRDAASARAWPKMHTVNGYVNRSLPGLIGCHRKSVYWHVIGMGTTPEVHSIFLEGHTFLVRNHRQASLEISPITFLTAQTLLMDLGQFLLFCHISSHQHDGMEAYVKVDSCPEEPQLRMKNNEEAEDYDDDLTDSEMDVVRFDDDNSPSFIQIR
T1 sequence 2: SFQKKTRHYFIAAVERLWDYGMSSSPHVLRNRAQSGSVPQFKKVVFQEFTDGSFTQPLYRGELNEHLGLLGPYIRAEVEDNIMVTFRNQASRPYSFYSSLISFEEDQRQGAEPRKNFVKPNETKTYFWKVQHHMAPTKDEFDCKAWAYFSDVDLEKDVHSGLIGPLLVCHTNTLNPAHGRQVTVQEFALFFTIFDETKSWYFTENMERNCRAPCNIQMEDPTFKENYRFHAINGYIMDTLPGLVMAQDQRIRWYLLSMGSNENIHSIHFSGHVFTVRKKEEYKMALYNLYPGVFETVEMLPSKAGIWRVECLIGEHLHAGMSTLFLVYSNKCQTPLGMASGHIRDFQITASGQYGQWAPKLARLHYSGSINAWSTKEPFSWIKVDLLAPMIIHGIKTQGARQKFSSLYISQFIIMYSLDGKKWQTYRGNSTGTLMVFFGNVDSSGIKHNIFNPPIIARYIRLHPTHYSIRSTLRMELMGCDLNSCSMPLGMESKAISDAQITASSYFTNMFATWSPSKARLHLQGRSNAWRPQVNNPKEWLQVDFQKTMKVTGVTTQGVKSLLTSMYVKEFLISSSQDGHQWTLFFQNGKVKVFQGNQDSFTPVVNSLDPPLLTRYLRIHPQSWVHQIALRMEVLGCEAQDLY

[2] = biological target: T2, factor VIIIa A1/A3C1C2 dimer, S1949A (human, UniProt P00451 20-391; P00451 1709-2351)
T2 sequence 1: T1 sequence 1
T2 sequence 2: T1 sequence 2 with F103Y, S260A

[3] = biological target: T3, factor VIIIa A1/A3C1C2 dimer, S1791A (human, UniProt P00451 20-391; P00451 1709-2351)
T3 sequence 1: T1 sequence 1
T3 sequence 2: T1 sequence 2 with S102A, F103Y

B1: factor VIIIa A2 subunit, wild type (other)
chain: SVAKKHPKTWVHYIAAEEEDWDYAPLVLAPDDRSYKSQYLNNGPQRIGRKYKKVRFMAYTDETFKTREAIQHESGILGPLLYGEVGDTLLIIFKNQASRPYNIYPHGITDVRPLYSRRLPKGVKHLKDFPILPGEIFKYKWTVTVEDGPTKSDPRCLTRYYSSFVNMERDLASGLIGPLLICYKESVDQRGNQIMSDKRNVILFSVFDENRSWYLTENIQRFLPNPAGVQLEDPEFQASNIMHSINGYVFDSLQLSVCLHEVAYWYILSIGAQTDFLSVFFSGYTFKHKMVYEDTLTLFPFSGETVFMSMENPGLWILGCHNSDFRNRGMTALLKVSSCDKNTGDYYEDSYEDISAYLLSKNNAIEPR
- Factor VIIIa decay rate relative to wild type, FIXa (+) [1]: 38.4 relative to wild type
- Factor VIIIa decay rate relative to wild type, FIXa (-) [1]: 11.5 relative to wild type
- Factor VIIIa decay rate, FIXa (+) [1]: 0.433 min⁻¹
- Factor VIIIa decay rate, FIXa (-) [1]: 0.724 min⁻¹
- Factor VIIIa decay rate relative to wild type, FIXa (+) [2]: 1.14 relative to wild type
- Factor VIIIa decay rate, FIXa (+) [2]: 0.0129 min⁻¹
- Factor VIIIa decay rate relative to wild type, FIXa (+) [3]: 1.85 relative to wild type
- Factor VIIIa decay rate, FIXa (+) [3]: 0.0208 min⁻¹
